Source: IntAct's records for PubMed 32296183

B1: Catenin alpha-3 (Homo sapiens), Q9UI47-2 (parent)
chain: MSAETPITLNIDPQDLQVQTFTVEKLLEPLIIQVTTLVNCPQNPSSRKKGRSKRASVLLASVEEATWNLLDKGEKIAQEATVLKDELTASLEEVRKESEALKVSAERFTDDPCFLPKREAVVQAARALLAAVTRLLILADMIDVMCLLQHVSAFQRTFESLKNVANKSDLQKTYQKLGKELENLDYLAFKRQQDLKSPNQRDEIAGARASLKENSPLLHSICSACLEHSDVASLKASKDTVCEEIQNALNVISNASQGIQNMTTPPEPQAATLGSALDELENLIVLNPLTVTEEEIRPSLEKRLEAIISGAALLADSSCTRDLHRERIIAECNAIRQALQDLLSEYMNNAGKKERSNTLNIALDNMCKKTRDLRRQLRKAIIDHVSDSFLDTTVPLLVLIEAAKNGREKEIKEYAAIFHEHTSRLVEVANLACSMSTNEDGIKIVKIAANHLETLCPQIINAALALAARPKSQAVKNTMEMYKRTWENHIHVLTEAVDDITSIDDFLAVSGMFLFF
partner: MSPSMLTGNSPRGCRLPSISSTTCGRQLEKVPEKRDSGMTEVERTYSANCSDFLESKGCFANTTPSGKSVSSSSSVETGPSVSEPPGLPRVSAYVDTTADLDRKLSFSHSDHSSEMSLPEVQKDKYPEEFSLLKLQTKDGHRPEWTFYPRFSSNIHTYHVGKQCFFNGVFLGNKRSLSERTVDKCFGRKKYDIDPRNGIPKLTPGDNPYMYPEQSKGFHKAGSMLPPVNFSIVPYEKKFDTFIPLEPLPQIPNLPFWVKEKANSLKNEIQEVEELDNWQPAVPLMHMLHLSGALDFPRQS
B2: Golgi SNAP receptor complex member 2 (Homo sapiens), O14653 (parent)
chain: MDPLFQQTHKQVHEIQSCMGRLETADKQSVHIVENEIQASIDQIFSRLERLEILSSKEPPNKRQNARLRVDQLKYDVQHLQTALRNFQHRRHAREQQERQREELLSRTFTTNDSDTTIPMDESLQFNSSLQKVHNGMDDLILDGHNILDGLRTQRLTLKGTQKKILDIANMLGLSNTVMRLIEKRAFQDKYFMIGGMLLTCVVMFLVVQYLT
partner: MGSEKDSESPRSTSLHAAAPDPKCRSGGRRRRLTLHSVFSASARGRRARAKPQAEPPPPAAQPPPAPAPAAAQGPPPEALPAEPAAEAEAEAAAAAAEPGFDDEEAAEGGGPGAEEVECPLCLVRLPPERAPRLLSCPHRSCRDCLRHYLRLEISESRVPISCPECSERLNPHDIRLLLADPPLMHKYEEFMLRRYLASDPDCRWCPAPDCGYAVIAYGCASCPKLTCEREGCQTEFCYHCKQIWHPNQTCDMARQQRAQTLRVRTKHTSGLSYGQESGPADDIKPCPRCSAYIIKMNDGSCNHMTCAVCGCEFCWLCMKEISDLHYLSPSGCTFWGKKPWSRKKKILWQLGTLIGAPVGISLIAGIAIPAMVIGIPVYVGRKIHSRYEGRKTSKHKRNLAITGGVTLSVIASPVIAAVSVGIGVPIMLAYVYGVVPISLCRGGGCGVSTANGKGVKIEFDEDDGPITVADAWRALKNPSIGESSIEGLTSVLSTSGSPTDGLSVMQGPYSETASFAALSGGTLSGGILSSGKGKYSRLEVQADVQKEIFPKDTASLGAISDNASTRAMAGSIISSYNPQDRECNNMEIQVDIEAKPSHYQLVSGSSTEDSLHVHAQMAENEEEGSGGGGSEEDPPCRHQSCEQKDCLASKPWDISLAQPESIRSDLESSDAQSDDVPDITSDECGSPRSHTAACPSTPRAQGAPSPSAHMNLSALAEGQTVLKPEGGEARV
B3: Golgi SNAP receptor complex member 2 (Homo sapiens), O14653 (parent)
chain: B2 chain
partner: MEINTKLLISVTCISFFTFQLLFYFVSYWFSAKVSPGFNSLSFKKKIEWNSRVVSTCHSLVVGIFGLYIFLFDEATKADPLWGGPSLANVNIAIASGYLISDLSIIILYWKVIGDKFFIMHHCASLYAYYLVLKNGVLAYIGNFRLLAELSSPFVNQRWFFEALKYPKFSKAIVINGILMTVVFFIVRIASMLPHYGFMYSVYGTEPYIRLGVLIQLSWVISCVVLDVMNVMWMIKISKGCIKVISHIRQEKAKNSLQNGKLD
B4: Golgi SNAP receptor complex member 2 (Homo sapiens), O14653 (parent)
chain: B2 chain
partner: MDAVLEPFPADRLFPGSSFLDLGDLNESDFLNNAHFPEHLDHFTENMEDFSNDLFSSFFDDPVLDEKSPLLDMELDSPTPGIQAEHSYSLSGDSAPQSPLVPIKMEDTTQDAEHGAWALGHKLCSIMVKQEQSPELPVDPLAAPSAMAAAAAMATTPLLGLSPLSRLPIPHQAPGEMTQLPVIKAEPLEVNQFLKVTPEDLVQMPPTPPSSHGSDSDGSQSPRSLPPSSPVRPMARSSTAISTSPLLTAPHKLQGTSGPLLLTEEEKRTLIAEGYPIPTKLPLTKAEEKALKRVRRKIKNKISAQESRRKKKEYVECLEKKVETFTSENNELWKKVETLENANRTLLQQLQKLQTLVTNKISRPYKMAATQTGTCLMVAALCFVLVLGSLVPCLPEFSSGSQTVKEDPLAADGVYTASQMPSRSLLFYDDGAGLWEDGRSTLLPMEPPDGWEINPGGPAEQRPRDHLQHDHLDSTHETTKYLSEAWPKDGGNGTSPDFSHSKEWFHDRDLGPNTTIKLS
B5: Golgi SNAP receptor complex member 2 (Homo sapiens), O14653 (parent)
chain: B2 chain
partner: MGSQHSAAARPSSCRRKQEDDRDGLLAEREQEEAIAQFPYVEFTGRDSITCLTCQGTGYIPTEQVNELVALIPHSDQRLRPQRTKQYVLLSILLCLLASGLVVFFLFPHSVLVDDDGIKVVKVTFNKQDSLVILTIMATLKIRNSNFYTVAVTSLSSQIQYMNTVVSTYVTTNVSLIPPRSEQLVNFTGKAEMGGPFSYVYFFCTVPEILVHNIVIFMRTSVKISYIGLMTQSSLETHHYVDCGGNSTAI
B6: Catenin alpha-3 (Homo sapiens), Q9UI47-2 (parent)
chain: B1 chain
partner: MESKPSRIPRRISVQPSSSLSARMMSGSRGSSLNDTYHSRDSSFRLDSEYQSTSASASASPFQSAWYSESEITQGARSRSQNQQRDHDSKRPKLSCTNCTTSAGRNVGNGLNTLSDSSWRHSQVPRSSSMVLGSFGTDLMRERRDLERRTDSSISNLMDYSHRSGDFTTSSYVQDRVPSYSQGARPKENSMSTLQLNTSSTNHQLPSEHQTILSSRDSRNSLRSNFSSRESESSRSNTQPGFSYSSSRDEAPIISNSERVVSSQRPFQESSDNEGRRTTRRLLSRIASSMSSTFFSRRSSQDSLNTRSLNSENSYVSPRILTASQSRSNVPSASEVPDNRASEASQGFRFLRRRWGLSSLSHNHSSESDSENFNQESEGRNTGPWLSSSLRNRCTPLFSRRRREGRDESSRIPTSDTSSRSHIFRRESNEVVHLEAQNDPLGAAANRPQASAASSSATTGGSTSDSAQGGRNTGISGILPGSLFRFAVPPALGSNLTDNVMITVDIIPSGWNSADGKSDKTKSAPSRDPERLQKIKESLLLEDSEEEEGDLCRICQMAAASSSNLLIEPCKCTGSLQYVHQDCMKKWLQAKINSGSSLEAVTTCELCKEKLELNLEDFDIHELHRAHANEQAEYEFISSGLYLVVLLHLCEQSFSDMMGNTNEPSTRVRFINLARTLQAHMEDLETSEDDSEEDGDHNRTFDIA
B7: Very-long-chain enoyl-CoA reductase (Homo sapiens), Q9NZ01 (parent)
chain: MKHYEVEILDAKTREKLCFLDKVEPHATIAEIKNLFTKTHPQWYPARQSLRLDPKGKSLKDEDVLQKLPVGTTATLYFRDLGAQISWVTVFLTEYAGPLFIYLLFYFRVPFIYGHKYDFTSSRHTVVHLACICHSFHYIKRLLETLFVHRFSHGTMPLRNIFKNCTYYWGFAAWMAYYINHPLYTPPTYGAQQVKLALAIFVICQLGNFSIHMALRDLRPAGSKTRKIPYPTKNPFTWLFLLVSCPNYTYEVGSWIGFAIMTQCLPVALFSLVGFTQMTIWAKGKHRSYLKEFRDYPPLRMPIIPFLL
partner: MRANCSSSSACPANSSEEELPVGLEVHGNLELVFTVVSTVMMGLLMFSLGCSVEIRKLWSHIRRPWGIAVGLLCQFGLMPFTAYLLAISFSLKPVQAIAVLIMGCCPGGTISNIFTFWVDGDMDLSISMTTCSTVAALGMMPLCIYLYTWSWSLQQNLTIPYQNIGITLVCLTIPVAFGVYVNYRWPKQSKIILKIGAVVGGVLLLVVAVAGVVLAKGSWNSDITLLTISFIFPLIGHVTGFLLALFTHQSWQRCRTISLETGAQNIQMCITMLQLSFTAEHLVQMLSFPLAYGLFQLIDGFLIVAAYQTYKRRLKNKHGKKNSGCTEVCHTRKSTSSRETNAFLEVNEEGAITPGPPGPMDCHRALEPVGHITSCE
B8: Catenin alpha-3 (Homo sapiens), Q9UI47-2 (parent)
chain: B1 chain
partner: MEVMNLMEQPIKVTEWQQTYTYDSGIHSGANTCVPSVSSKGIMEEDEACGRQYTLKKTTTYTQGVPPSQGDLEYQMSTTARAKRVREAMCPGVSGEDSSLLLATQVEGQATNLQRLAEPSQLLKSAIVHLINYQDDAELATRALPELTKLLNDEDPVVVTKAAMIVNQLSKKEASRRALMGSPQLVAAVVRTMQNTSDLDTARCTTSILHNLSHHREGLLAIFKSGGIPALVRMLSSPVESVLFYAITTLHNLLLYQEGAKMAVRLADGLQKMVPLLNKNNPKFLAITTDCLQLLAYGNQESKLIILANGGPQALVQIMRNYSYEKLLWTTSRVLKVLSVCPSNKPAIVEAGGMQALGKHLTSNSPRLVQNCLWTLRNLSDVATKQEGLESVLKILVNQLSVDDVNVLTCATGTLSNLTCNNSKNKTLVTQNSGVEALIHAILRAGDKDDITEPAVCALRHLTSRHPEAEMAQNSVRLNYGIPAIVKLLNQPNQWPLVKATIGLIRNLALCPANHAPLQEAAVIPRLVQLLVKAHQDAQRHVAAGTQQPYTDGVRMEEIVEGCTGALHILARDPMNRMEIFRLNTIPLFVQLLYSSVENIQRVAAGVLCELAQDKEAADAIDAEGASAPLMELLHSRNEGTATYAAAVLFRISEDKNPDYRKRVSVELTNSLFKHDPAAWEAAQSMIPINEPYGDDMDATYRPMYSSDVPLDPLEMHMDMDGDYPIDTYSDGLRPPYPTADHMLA
B9: Golgi SNAP receptor complex member 2 (Homo sapiens), O14653 (parent)
chain: B2 chain
partner: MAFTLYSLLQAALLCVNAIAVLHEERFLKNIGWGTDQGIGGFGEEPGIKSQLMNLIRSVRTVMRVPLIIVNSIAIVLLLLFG
B10: Ceroid-lipofuscinosis neuronal protein 6 (Homo sapiens), Q9NWW5 (parent)
chain: MEATRRRQHLGATGGPGAQLGASFLQARHGSVSADEAARTAPFHLDLWFYFTLQNWVLDFGRPIAMLVFPLEWFPLNKPSVGDYFHMAYNVITPFLLLKLIERSPRTLPRSITYVSIIIFIMGASIHLVGDSVNHRLLFSGYQHHLSVRENPIIKNLKPETLIDSFELLYYYDEYLGHCMWYIPFFLILFMYFSGCFTASKAESLIPGPALLLVAPSGLYYWYLVTEGQIFILFIFTFFAMLALVLHQKRKRLFLDSNGLFLFSSFALTLLLVALWVAWLWNDPVLRKKYPGVIYVPEPWAFYTLHVSSRH
partner: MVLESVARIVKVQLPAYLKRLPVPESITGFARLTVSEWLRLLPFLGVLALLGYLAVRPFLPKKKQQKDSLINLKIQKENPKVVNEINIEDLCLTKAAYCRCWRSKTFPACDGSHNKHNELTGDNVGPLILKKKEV

Variants of: B1
Conditions: with spas1_human SPATS1, Q496A3

Variant	effect of a mutation on the interaction
V94D	disrupting interaction strength

Variants of: B2
Conditions: with rn19b_human RNF19B

Variant	effect of a mutation on the interaction
G144W	with no effect

Variants of: B3
Conditions: with tlcd4_human TLCD4, Q96MV1

Variant	effect of a mutation on the interaction
G144W	with no effect

Variants of: B4
Conditions: with cr3l1_human CREB3L1, Q96BA8

Variant	effect of a mutation on the interaction
G144W	with no effect

Variants of: B5
Conditions: with TMEM106C

Variant	effect of a mutation on the interaction
G144W	disrupting interaction strength

Variants of: B6
Conditions: with marh7_human MARCHF7, Q9H992

Variant	effect of a mutation on the interaction
V94D	with no effect

Variants of: B7
Conditions: with soat_human SLC10A6, Q3KNW5

Variant	effect of a mutation on the interaction
P182L	with no effect

Variants of: B8
Conditions: with plak_human JUP

Variant	effect of a mutation on the interaction
V94D	disrupting interaction strength

Variants of: B9
Conditions: with ir3ip_human IER3IP1, Q9Y5U9

Variant	effect of a mutation on the interaction
G144W	with no effect

Variants of: B10
Conditions: with cisd2_human CISD2, Q8N5K1

Variant	effect of a mutation on the interaction
L47F	with no effect
G123D	with no effect
